B1: ePGDM9 (antibody, V domains shown)
VH: QAQLVQSGPEVRKPGTSVKVSCKNPGNTLTTYDLHWVRQVPGQGLQWMGWISHEGDKKVIVERFKAKVTIDWDRSTNTAYLQLSGLTSEDTAVYYCAKGSKHRLRDYALYDEDGALNWAVDVDYLANLEFWGQGTAVTVSS
VL: DIVLTQSPLSLSVTPGESASISCKSSQSLIHGDRNNYLAWYVQKPGRSPQLLIDLASERASGVPDRFSGSGSRKDFTLKISRVETEDVGTYYCMQGRESPWTFGQGTKVDIK
B2: PGDM1400 (antibody, V domains shown)
VH: B1 VH with A2V, Q3H, V5T, N24A, T30K, Q39S, E89G, E112D, A126S
VL: B1 VL with I2F, L9H, Q27H, D54Y, E58S, R73D
B3: ePGDM13 (antibody, V domains shown)
VH: B1 VH
VL: B1 VL with Q27H, I30Q, I53L, R73E
B4: ePGDM5 (antibody, V domains shown)
VH: B1 VH
VL: B1 VL with I2F, S26D, Q27H, I30Q, S81D, T85A

Numbering of substitutions follows the chain as printed.

One experiment concerns the target HIV Env, isolate Du422.1 (HIV). Nature of the experiment: cell-based or functional assay.
In the case of B1, the “IC80 (µg/ml) with constrains” value amounted to 53.2 µg/mL.

In the case of B2, the “IC80 (µg/ml) with constrains” value was over 100 µg/mL.

B3: the “IC80 (µg/ml) with constrains” value is over 100 µg/mL.

B4: the “IC80 (µg/ml) with constrains” value was found to be 34.6 µg/mL.

The target of the next experiment is HIV Env, isolate 6811.v7.c18 (HIV). Nature of the experiment: cell-based or functional assay.
B1: the “IC80 (µg/ml) with constrains” value is over 100 µg/mL.

As for B2, the “IC80 (µg/ml) with constrains” value was over 100 µg/mL.

Regarding B3, the “IC80 (µg/ml) with constrains” value is over 100 µg/mL.

Take B4: the “IC80 (µg/ml) with constrains” value was over 100 µg/mL.

For a further experiment, the target named is HIV Env, isolate 1056_10_TA11_1826 (HIV). Briefly: cell-based or functional assay.
B1: the “IC80 (µg/ml) with constrains” value amounted to 3.61 µg/mL.

Take B2: the “IC80 (µg/ml) with constrains” value was 13.5 µg/mL.

Turning to B3, the “IC80 (µg/ml) with constrains” value came to 6.03 µg/mL.

As to B4, the “IC80 (µg/ml) with constrains” value amounted to 3.57 µg/mL.

The target in the next experiment is HIV Env, isolate ZM135M.PL10a (HIV). Briefly: cell-based or functional assay.
In the case of B1, the “IC80 (µg/ml) with constrains” value was over 100 µg/mL.

On to B2, for which the “IC80 (µg/ml) with constrains” value is over 100 µg/mL.

For the molecule B3, the “IC80 (µg/ml) with constrains” value was over 100 µg/mL.

In the case of B4, the “IC80 (µg/ml) with constrains” value is over 100 µg/mL.

The target in another experiment is HIV Env, isolate 1006_11_C3_1601 (HIV). Nature of the experiment: cell-based or functional assay.
Turning to B1, the “IC80 (µg/ml) with constrains” value was 2.35 µg/mL.

For the molecule B2, the “IC80 (µg/ml) with constrains” value was 7.43 µg/mL.

On to B3, for which the “IC80 (µg/ml) with constrains” value is 3.3 µg/mL.

For B4, the “IC80 (µg/ml) with constrains” value worked out at 1.89 µg/mL.

Another experiment deals with HIV Env, isolate PVO.4 (HIV). Briefly: cell-based or functional assay.
For B1, the “IC80 (µg/ml) with constrains” value was determined as 7.7 µg/mL.

Regarding B2, the “IC80 (µg/ml) with constrains” value stood at 13.6 µg/mL.

Regarding B3, the “IC80 (µg/ml) with constrains” value came to 11.8 µg/mL.

Turning to B4, the “IC80 (µg/ml) with constrains” value turned out to be 5.57 µg/mL.

For the next experiment, the target named is HIV Env, isolate X2088_C9 (HIV). Briefly: cell-based or functional assay.
Turning to B1, the “IC80 (µg/ml) with constrains” value is over 100 µg/mL.

For B2, the “IC80 (µg/ml) with constrains” value was over 100 µg/mL.

Regarding B3, the “IC80 (µg/ml) with constrains” value was over 100 µg/mL.

As to B4, the “IC80 (µg/ml) with constrains” value is over 100 µg/mL.

The target in a further experiment is HIV Env, isolate WITO4160.33 (HIV). Nature of the experiment: cell-based or functional assay.
B1: the “IC80 (µg/ml) with constrains” value is 0.009 µg/mL.

In the case of B2, the “IC80 (µg/ml) with constrains” value amounted to 0.013 µg/mL.

In the case of B3, the “IC80 (µg/ml) with constrains” value stood at 0.013 µg/mL.

As to B4, the “IC80 (µg/ml) with constrains” value worked out at 0.015 µg/mL.

For a further experiment, the target named is HIV Env, isolate X1254_C3 (HIV). Nature of the experiment: cell-based or functional assay.
Consider B1, for which the “IC80 (µg/ml) with constrains” value came to 0.71 µg/mL.

In the case of B2, the “IC80 (µg/ml) with constrains” value was over 100 µg/mL.

In the case of B3, the “IC80 (µg/ml) with constrains” value stood at 2.07 µg/mL.

For B4, the “IC80 (µg/ml) with constrains” value is 0.869 µg/mL.

The target in another experiment is HIV Env, isolate Ce1176_A3 (HIV). Briefly: cell-based or functional assay.
Turning to B1, the “IC80 (µg/ml) with constrains” value is 0.089 µg/mL.

With B2, the “IC80 (µg/ml) with constrains” value came out at 2.1 µg/mL.

Consider B3, for which the “IC80 (µg/ml) with constrains” value came out at 0.124 µg/mL.

Take B4: the “IC80 (µg/ml) with constrains” value was 0.088 µg/mL.

Another experiment addresses HIV Env, isolate 1012_11_TC21_3257 (HIV). Nature of the experiment: cell-based or functional assay.
As for B1, the “IC80 (µg/ml) with constrains” value amounted to 0.167 µg/mL.

With B2, the “IC80 (µg/ml) with constrains” value was found to be 0.303 µg/mL.

B3: the “IC80 (µg/ml) with constrains” value stood at 0.26 µg/mL.

As to B4, the “IC80 (µg/ml) with constrains” value was 0.305 µg/mL.

The next experiment concerns the target HIV Env, isolate ZM53M.PB12 (HIV). Briefly: cell-based or functional assay.
As for B1, the “IC80 (µg/ml) with constrains” value came out at 0.026 µg/mL.

Regarding B2, the “IC80 (µg/ml) with constrains” value amounted to 0.034 µg/mL.

Turning to B3, the “IC80 (µg/ml) with constrains” value amounted to 0.022 µg/mL.

Consider B4, for which the “IC80 (µg/ml) with constrains” value worked out at 0.022 µg/mL.

In a further experiment the target is HIV Env, isolate 6535.3 (HIV). Briefly: cell-based or functional assay.
As to B1, the “IC80 (µg/ml) with constrains” value was over 100 µg/mL.

Regarding B2, the “IC80 (µg/ml) with constrains” value was over 100 µg/mL.

As to B3, the “IC80 (µg/ml) with constrains” value is over 100 µg/mL.

As for B4, the “IC80 (µg/ml) with constrains” value was over 100 µg/mL.

The next experiment deals with HIV Env, isolate 246FC1G (HIV). Briefly: cell-based or functional assay.
Consider B1, for which the “IC80 (µg/ml) with constrains” value is over 100 µg/mL.

Turning to B2, the “IC80 (µg/ml) with constrains” value was over 100 µg/mL.

As for B3, the “IC80 (µg/ml) with constrains” value was over 100 µg/mL.

Consider B4, for which the “IC80 (µg/ml) with constrains” value is over 100 µg/mL.

Another experiment deals with HIV Env, isolate CNE52 (HIV). Briefly: cell-based or functional assay.
Turning to B1, the “IC80 (µg/ml) with constrains” value was found to be 7.39 µg/mL.

Consider B2, for which the “IC80 (µg/ml) with constrains” value is over 100 µg/mL.

As for B3, the “IC80 (µg/ml) with constrains” value amounted to 11.3 µg/mL.

Regarding B4, the “IC80 (µg/ml) with constrains” value stood at 24.6 µg/mL.

In another experiment the target is HIV Env, isolate 6240_08_TA5_4622 (HIV). Nature of the experiment: cell-based or functional assay.
As to B1, the “IC80 (µg/ml) with constrains” value turned out to be 6.6 µg/mL.

For the molecule B2, the “IC80 (µg/ml) with constrains” value was over 100 µg/mL.

On to B3, for which the “IC80 (µg/ml) with constrains” value came to 12.6 µg/mL.

On to B4, for which the “IC80 (µg/ml) with constrains” value stood at 8.09 µg/mL.

For a further experiment, the target named is HIV Env, isolate T263-8 (HIV). Briefly: cell-based or functional assay.
Turning to B1, the “IC80 (µg/ml) with constrains” value came to 0.06 µg/mL.

In the case of B2, the “IC80 (µg/ml) with constrains” value was 0.081 µg/mL.

On to B3, for which the “IC80 (µg/ml) with constrains” value was 0.101 µg/mL.

B4: the “IC80 (µg/ml) with constrains” value came out at 0.076 µg/mL.

The next experiment concerns the target HIV Env, isolate 1054_07_TC4_1499 (HIV). Nature of the experiment: cell-based or functional assay.
With B1, the “IC80 (µg/ml) with constrains” value was over 100 µg/mL.

Turning to B2, the “IC80 (µg/ml) with constrains” value was over 100 µg/mL.

B3: the “IC80 (µg/ml) with constrains” value is over 100 µg/mL.

With B4, the “IC80 (µg/ml) with constrains” value was over 100 µg/mL.

For the origin of these results see patent publication US20230134571A1 (INTERNATIONAL AIDS VACCINE INITIATIVE, published 2023).
